IntAct's records for PubMed 17442384

B1: Suppressor protein STP22 of temperature-sensitive alpha-factor receptor and arginine permease (Saccharomyces cerevisiae), P25604 (parent)
chain: MSANGKISVPEAVVNWLFKVIQPIYNDGRTTFHDSLALLDNFHSLRPRTRVFTHSDGTPQLLLSIYGTISTGEDGSSPHSIPVIMWVPSMYPVKPPFISINLENFDMNTISSSLPIQEYIDSNGWIALPILHCWDPAAMNLIMVVQELMSLLHEPPQDQAPSLPPKPNTQLQQEQNTPPLPPKPKSPHLKPPLPPPPPPQPASNALDLMDMDNTDISPTNHHEMLQNLQTVVNELYREDVDYVADKILTRQTVMQESIARFHEIIAIDKNHLRAVEQAIEQTMHSLNAQIDVLTANRAKVQQFSSTSHVDDEDVNSIAVAKTDGLNQLYNLVAQDYALTDTIECLSRMLHRGTIPLDTFVKQGRELARQQFLVRWHIQRITSPLS
partner: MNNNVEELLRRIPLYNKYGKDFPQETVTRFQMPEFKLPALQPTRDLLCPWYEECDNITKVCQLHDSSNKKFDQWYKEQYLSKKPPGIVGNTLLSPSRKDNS
B2: Multivesicular body sorting factor 12 (Saccharomyces cerevisiae), P42939 (parent)
chain: B1 partner
partner: B1 chain
B3: Suppressor protein STP22 of temperature-sensitive alpha-factor receptor and arginine permease (Saccharomyces cerevisiae), P25604 (parent)
chain: B1 chain
partner: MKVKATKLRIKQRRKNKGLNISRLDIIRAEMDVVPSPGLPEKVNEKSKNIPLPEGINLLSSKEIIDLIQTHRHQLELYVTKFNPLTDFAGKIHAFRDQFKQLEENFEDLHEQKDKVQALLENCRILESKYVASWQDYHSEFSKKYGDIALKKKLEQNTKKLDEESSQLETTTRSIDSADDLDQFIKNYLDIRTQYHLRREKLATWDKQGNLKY
B4: Multivesicular body sorting factor 12 (Saccharomyces cerevisiae), P42939 (parent)
chain: B1 partner
partner: B3 partner

Variants of: B1
Conditions: with mvb12_yeast MVB12, P42939

Variant	effect of a mutation on the interaction
M254D	decreasing interaction

Variants of: B2
Conditions: with stp22_yeast STP22, P25604

Variant	effect of a mutation on the interaction
L47D;I57D	decreasing interaction

Variants of: B3
Conditions: with srn2_yeast SRN2, Q99176

Variant	effect of a mutation on the interaction
M254D	decreasing interaction

Variants of: B4
Conditions: with srn2_yeast SRN2, Q99176

Variant	effect of a mutation on the interaction
L47D;I57D	decreasing interaction
